In patent US20050180949A1 (NUVELO, published 2005):

Target: the molecule itself
Assay: non-reducing vs reducing SDS-PAGE of the purified protein, Western blot with HRP-conjugated anti-V5 antibody (self-association / oligomerization)
Method: Purified recombinant full-length hC1Q/TNF7 protein expressed in HEK-293 cells was treated as follows: N=non-reduced only; N+H=non-reduced plus heating at 100° C. for 10 min; R=reduced only; and R+H=reduced plus heating at 100° C. for 10 min.
Studies of C1Q and 1C1Q-related proteins, such as adiponectin (Ad), indicate that most of the proteins form trimer, hexamer and higher molecular weight species (Shapiro and Scherer, Curr. Biol. 8:335-338 (1998) herein incorporated by reference in its entirety). To determine the oligomerization status of the hC1Q/TNF7 protein, the HEK293-expressed full-length hC1Q/TNF7 was treated under various conditions: non-reduced only (N); non-reduced plus heating at 100° C. for 10 min (N+H); reduced only (R); and reduced plus heating at 100° C. for 10 min (R+H). […] After heat treatment under non-reducing conditions, hC1Q/TNF7 migrated in 3 major bands: approximately 40, approximately 80, and approximately 160 kDa (Lane 2). In contrast, when hC1Q/TNF7 was treated under reducing conditions with or without heating, it ran as a single band at approximately 40 kDa (Lanes 3 and 4). Similar results were obtained using hC1Q/TNF7-F1 protein and an N-terminal V5His-tagged version of full-length hC1Q/TNF7 (not shown).

B1: full-length hC1Q/TNF7, carboxy-terminal V5His6-tagged, expressed in HEK-293 cells (ligand)
chain: QPRGNQLKGENYSPRYICSIPGLPGPPGPPGANGSPGPHGRIGLPGRDGRDGRKGEKGEKGTAGLRGKTGPLGLAGEKGDQGETGKKGPIGPEGEKGEVGPIGPPGPKGDRGEQGDPGLPGVCRCGSIVLKSAFSVGITTSYPEERLPIIFNKVLFNEGEHYNPATGKFICAFPGIYYFSYDITLANKHLAIGLVHNGQYRIKTFDANTGNHDVASGSTVIYLQPEDEVWLEIFFTDQNGLFSDPGWADSLFSGFLLYVDTDYLDSISEDDEL
notes: The signal peptide cleavage site is only predicted; Oligomer state as told: dimers, tetramers and higher order oligomers; also called HEK293-expressed full-length hC1Q/TNF7; human C1Q/TNF7; not shown: C-terminal V5His6 tag from the pIntron vector
- binding result: binds
